According to article PMC3531522, “Nasal Colonisation by Staphylococcus aureus Depends upon Clumping Factor B Binding to the Squamous Epithelial Cell Envelope Protein Loricrin” (PLoS Pathogens, 2012):

T1: GST-murine loricrin_(1–480) (murine, UniProt P18165 1-486)
T1 construct: Loricrin, murine, full length, printed as residues 1-480; The printed length (480) may differ from that of the UniProt entry; also called MLor; GST-MLor; source: DNA codon optimised for E. coli, in pGEX-4T; purified on GSTrap FF; not shown: GST, N-terminal, kept
T1 sequence (looked up): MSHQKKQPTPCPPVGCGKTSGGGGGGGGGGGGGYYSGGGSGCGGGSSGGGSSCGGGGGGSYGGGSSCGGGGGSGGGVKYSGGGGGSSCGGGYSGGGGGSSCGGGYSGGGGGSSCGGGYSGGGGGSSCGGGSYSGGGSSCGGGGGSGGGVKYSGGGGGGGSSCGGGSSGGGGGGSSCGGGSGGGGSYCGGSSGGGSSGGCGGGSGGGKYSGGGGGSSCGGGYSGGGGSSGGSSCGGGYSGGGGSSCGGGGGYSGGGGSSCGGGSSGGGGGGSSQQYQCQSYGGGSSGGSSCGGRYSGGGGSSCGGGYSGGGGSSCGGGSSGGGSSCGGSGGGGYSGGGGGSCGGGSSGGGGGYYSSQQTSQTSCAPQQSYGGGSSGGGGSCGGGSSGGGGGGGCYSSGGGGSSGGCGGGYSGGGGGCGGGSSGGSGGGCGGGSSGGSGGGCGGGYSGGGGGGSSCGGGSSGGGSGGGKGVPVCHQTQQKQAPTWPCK

B1: GST-Fgα_(316–367) (domain or fragment, UniProt P02671 335-386, looked up)
chain: NSGSSGTGSTGNQNPGSPRPGSTGTWNPGSSERGSAGHWTSESSVSGSTGQW
notes: Fibrinogen α-chain, residues 316-367, repeat domain 5 of the αC region; also called repeat domain 5 of the αC region of Fg
B2: Recombinant ClfB N2N3 (rClfB_(201–542)) (domain or fragment)
chain: AEPVVNAADAKGTNVNDKVTASNFKLEKTTFDPNQSGNTFMAANFTVTDKVKSGDYFTAKLPDSLTGNGDVDYSNSNNTMPIADIKSTNGDVVAKATYDILTKTYTFVFTDYVNNKENINGQFSLPLFTDRAKAPKSGTYDANINIADEMFNNKITYNYSSPIAGIDKPNGANISSQIIGVDTASGQNTYKQTVFVNPKQRVLGNTWVYIKGYQDKIEESSGKVSATDTKLRIFEVNDTSKLSDSYYADPNDSNLKEVTDQFKNRIYYEHPNVASIKFGDITKTYVVLVEGHYDNTGKNLKTQVIQENVDPVTNRDYSIFGWNNENVVRYGGGSADGDSAVN
notes: Clumping factor B (ClfB) of S. aureus, amino acids 201-542 (subdomains N2 and N3 of the A domain), amplified from plasmid pCU1:clfB; also called ClfB N2N3_(201–542); ClfB N23_(201–542); not shown: His6, N-terminal, kept
B3: GST-human loricrin_(1–315) (natural protein, UniProt P23490 1-312, looked up)
chain: MSYQKKQPTPQPPVDCVKTSGGGGGGGGSGGGGCGFFGGGGSGGGSSGSGCGYSGGGGYSGGGCGGGSSGGGGGGGIGGCGGGSGGSVKYSGGGGSSGGGSGCFSSGGGGSGCFSSGGGGSSGGGSGCFSSGGGGSSGGGSGCFSSGGGGFSGQAVQCQSYGGVSSGGSSGGGSGCFSSGGGGGSVCGYSGGGSGCGGGSSGGSGSGYVSSQQVTQTSCAPQPSYGGGSSGGGGSGGSGCFSSGGGGGSSGCGGGSSGIGSGCIISGGGSVCGGGSSGGGGGGSSVGGSGSGKGVPICHQTQQKQAPTWPSK
notes: Loricrin, human, full length, printed as residues 1-315 (S1 to K315); also called HLor; Hlor; source: DNA codon optimised for E. coli, in pGEX-4T; purified on GSTrap FF; not shown: GST, N-terminal, kept
B4: GST-human K10_(544–563) (peptide)
chain: GGSSGGGSSSGGGYGGGSSS
notes: Cytokeratin 10 (K10), human, residues 544-563 (C-terminal tail region); also called HK10; GST-HK10; source: DNA codon optimised for E. coli, in pGEX-4T; purified on GSTrap FF; not shown: GST, N-terminal, kept
B5: GST-murine K10_(454–570) (domain or fragment, UniProt P02535 454-570, looked up)
chain: EGSSSGGGGGRRGGSGGGSYGGSSGGGSYGGSSGGGGSYGGSSGGGGSYGGGSSGGGSHGGSSGGGYGGGSSSGGAGGHGGSSGGGYGGGSSSGGQGGSGGFKSSGGGDQSSKGPRY
notes: Cytokeratin 10 (K10), murine, residues 454-570 (C-terminal tail region); also called MK10; GST-MK10; source: DNA codon optimised for E. coli, in pGEX-4T; purified on GSTrap FF; not shown: GST, N-terminal, kept

What was measured:
Assay in all cases: SPR; BIAcore X100; GST-tagged ligand captured on a CM5 chip coated with goat anti-GST IgG, GST on the reference cell; increasing concentrations of rClfB_(201–542) in PBS passed in succession without regeneration (single cycle); KD from response at equilibrium against concentration
[1] = target: GST-tagged human loricrin loop region 2v (human)
[2] = target: GST-tagged human loricrin loop region 1A (human)
[3] = target: GST-tagged human loricrin loop region 2 (human)
[4] = target: GST-tagged human loricrin loop region 1B (human)
[5] = target: GST-tagged human loricrin loop region 3 (human)
[6] = target: B2; conditions: both partners purified
[7] = target: B2; conditions: both partners purified; remark: listed apart in the source
[8] = target: T1, GST-murine loricrin_(1–480); conditions: both partners purified

“Recombinant ClfB N2N3 (rClfB_(201–542)) (from UniProt O86476 201-542) (domain or fragment)” was tested, and the Kd [1] was 2.21 µM, the Kd [2] was 16.7 µM and the Kd [3] was 3.31 µM. It also gave a Kd [4] of 34.5 µM and a Kd [5] of 5.47 µM.

B1 showed a Kd [6] of 5.25 µM and a Kd [7] of 5.52 ± 1.5 µM.

Molecule B2 has a Kd [8] of 15.7 µM.

B3 showed a Kd [6] of 4.33 µM.

B4 showed a Kd [6] of 7.89 µM.

Molecule B5 has a Kd [6] of 14.4 µM.
